# Data reported in patent US20260209346A1 (LTZ THERAPEUTICS, published 2026).
# T1: cynomolgus CD79b recombinant protein (cynomolgus)
# T1 chain: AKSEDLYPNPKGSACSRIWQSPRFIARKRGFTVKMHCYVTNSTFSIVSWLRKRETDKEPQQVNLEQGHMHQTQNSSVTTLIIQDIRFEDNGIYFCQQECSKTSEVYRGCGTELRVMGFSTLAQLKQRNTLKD
# T2: human CD79b recombinant protein (human, UniProt P40259 29-159)
# T2 construct: also called human CD79b ECD antigen; recombinant human CD79b ECD
# T2 sequence: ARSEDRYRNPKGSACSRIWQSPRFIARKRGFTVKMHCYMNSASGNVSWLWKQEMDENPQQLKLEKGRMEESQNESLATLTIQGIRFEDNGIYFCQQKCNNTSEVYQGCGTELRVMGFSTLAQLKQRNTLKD
# T3: CD79b endogenously expressed on the cell surface (malignant B cell lines, normal B cells in PBMC, CLL … (human, UniProt P40259 29-229))
# T3 construct: whole, on cells; On cells CD79b stands in the B-cell receptor complex with CD79a and surface Ig; also called cell surface CD79b; endogenous CD79b
# T3 sequence (looked up): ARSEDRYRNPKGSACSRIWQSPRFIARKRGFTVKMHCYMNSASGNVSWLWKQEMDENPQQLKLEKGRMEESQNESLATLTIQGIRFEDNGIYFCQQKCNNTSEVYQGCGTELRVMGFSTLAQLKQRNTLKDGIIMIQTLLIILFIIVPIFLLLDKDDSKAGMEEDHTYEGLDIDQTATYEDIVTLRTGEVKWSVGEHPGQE
# What was measured:
# [1] = biological target: T1, cynomolgus CD79b recombinant protein; assay: ELISA; cynomolgus CD79b recombinant protein coated at 1 ug/ml; anti-human IgG HRP; OD 450 nm
# Description: (§1) Binding affinities of anti-CD79b antibodies to human and cynomolgus CD79b recombinant proteins were tested by ELISA. 1 ug/ml (in PBS buffer) of human or cynomolgus CD79b recombinant proteins were coated on an ELISA plate overnight. ELISA plates were washed and blocked with blocking buffer (PBS+1% BSA) followed by incubation with serially diluted anti-CD79b primary antibodies. Anti-CD79b antibody binding was quantified using an anti-human IgG HRP secondary antibody (Biolegend Catalog #410902) and HRP substrate.
# [2] = biological target: T2, human CD79b recombinant protein; assay: BLI; antibody at 10 ug/ml captured on anti-human IgG Fc probes, hCD79b in solution; same value printed in the rows for 18.3 and 9.14 nM hCD79b
# Description: (§2) Binding affinities of anti-CD79b antibodies to human CD79b recombinant proteins were tested by BLI. 10 ug/ml of anti-CD79b antibodies were captured by anti-human IgG Fc probes (Gator Bio Catalog #160024). […] Absolute kD was determined by applying a 1:1 binding model (Global Rmax unlinked).
# [3] = biological target: T3, CD79b endogenously expressed on the …; assay: flow cytometry on BJAB cells; anti-human IgG1-PE; MFI (PE); table under the graph; plateau only about 1.1x10^5 against about 6x10^5 for the others
# Description: (§3) The binding affinities of anti-CD79b antibodies to malignant B cell lines were tested. […] The cells were then incubated with 100 μl anti-human IgG1-PE (Invitrogen, cat: 12-4998-82), 1:1000 dilution, for 30 min on ice, washed with 200 ul PBS for three times before flow cytometry analysis.
# [4] = biological target: T2, human CD79b recombinant protein; assay: BLI, antibody captured on anti-human IgG Fc probes, human CD79b in solution, 1:1 model
# Description: as §2
# [5] = biological target: T3, CD79b endogenously expressed on the …; assay: flow cytometry on Ramos cells; anti-human IgG1-PE; MFI (PE); table under the graph; curve reaches only about 0.3x10^5 at 40 nM
# Description: as §3
# [6] = biological target: T2, human CD79b recombinant protein; assay: ELISA, coated human CD79b recombinant protein
# Description: as §1
# [7] = biological target: T3, CD79b endogenously expressed on the …; assay: flow cytometry on Nalm-6 cells; anti-human IgG1-PE; MFI (PE); table under the graph; fit of a flat curve, far above the highest concentration of 40 nM
# Description: as §3
# [8] = biological target: T3, CD79b endogenously expressed on the …; assay: flow cytometry on Daudi cells; anti-human IgG1-PE; MFI (PE); table under the graph; curve reaches only about 0.2x10^5 at 40 nM
# Description: as §3
binder,measurement,setting,value
"ch29C3 (antibody, human IgG1, kappa, V domains shown, Rabbit/human chimeric IgG1 kappa; also called chimeric 29C3) VH: QSVKESGGGLFKPTDTLTLTCTVSGIDLNNYAMNWVRQAPGKGLDWIGLIGASGSTYYADWAKGRFTISKTSTTVDLKMTSLTTEDTATYFCAIGISATAHTSNIWGPGTLVAVSL VL: ALVMTQTPSSVSAAVGGTVTINCQASQNIDSNLAWYQQKPGQPPKLLIYDASALASGVPSRFKGSGSGTEYTLTISGVEPDDAATYYCQQDDSSSNVDNPFGGGTEVVVKR",binding result,[1],no binding (tested: about 13 nM)
same,koff,[2],0.000168 s⁻¹
same,kon,[2],353000 M⁻¹ s⁻¹
same,EC50,[3],0.99 nM
same,Kd,[4],0.476 nM
same,EC50,[5],11.3 nM
same,IC50,[6],0.17 nM
same,EC50,[7],508 nM
same,EC50,[8],14.2 nM
